Experiment [1] relates to tryptic Mhyo polypeptide fragment-induced [Ca2+]i increase in ciliated tracheal epithelia. Nature of the experiment: Soybean trypsin inhibitor on tryptic Mhyo polypeptide fragment-induced [Ca2+]i increase. It is filed as cell-based, swine. The note with it: inhibitor 10 U/mL, incubated with preparation 37° C. 10 minutes. How it is done:
FIG. 14 is a graph plotting [Ca^2+]i increase in porcine ciliated tracheal cells incubated with tryptic Mhyo membrane preparation pretreated with a soybean trypsin inhibitor (TI). […] TI was incubated with the tryptic membrane preparation at 37° C. for 10 minutes prior to administration. […] Each trace depicts [Ca^2+]i changes in one cell.
(§1) According to a recent report, trypsin at 0.1 U/mL can increase [Ca^2+]i in guinea pig tracheal epithelia (Oshiro et al., Life Sci., 71:547-558 (2002)). Since the estimated trypsin concentration in the [Ca^2+]i experiments described herein is about 1 U/mL, we tested whether trypsin plays a role in the observed tryptic fragment-induced [Ca^2+]i increase.

For experiment [2], the system named is trypsin-induced [Ca2+]i increase in swine ciliated epithelia. Briefly: Soybean trypsin inhibitor on trypsin-induced [Ca2+]i increase. It is filed as cell-based. The settings on record: inhibitor 10 U/mL; trypsin 10 U/mL.
Text: as §1

The test system of experiment [3] is Mhyo membrane-induced [Ca2+]i increase in ciliated tracheal cells. Briefly: Protease pretreatment of Mhyo membrane, effect on membrane-induced [Ca2+]i increase. It is filed as cell-based, porcine. The settings on record: pretreatment of the membrane for 8 hours, 37° C. How it is done:
FIG. 6 contains four graphs plotting [Ca^2+]i response in ciliated porcine tracheal cells inoculated with Mhyo membranes. Each trace indicates the [Ca^2+]i changes in each tracheal cell. The arrows indicate when administration occurred. (A) The membrane preparation (100 μg/mL) increased [Ca^2+]i. (B) Digestion with proteinase K blocked the membrane-induced increase in [Ca^2+]i. The membrane (100 μg/0.1 mL PBS) was incubated with proteinase K (2 μg) at 37° C. for 8 hours before it was applied to tracheal cells in 0.9 mL Krebs-Ringer bicarbonate (KRB) buffer. (C) Digestion with trypsin potentiated the membrane-induced increase in [Ca^2+]i. The membrane (100 μg/0.1 mL PBS) was incubated with trypsin (6 μg) at 37° C. for 30 minutes before it was applied to tracheal cells in 0.9 mL KRB. […] The soluble protein was prepared by subjecting the trypsinized membrane to ultracentrifigation (100,000× g, 60 minutes) to obtain the supernatant.
Mycoplasmas lack cell walls and have only one type of membrane, the plasma membrane (Razin S. (1993) Mycoplasma membranes as models in membrane research (Chapter 2), In: Subcellular Biochemistry. Vol 20: Mycoplasma Cell Membranes, edited by Rottem S, Kahane I. Plenum Press, New York. pp. 1-28). The Mhyo membrane was prepared by osmotic lysis of the organisms and tested to determine if it increased [Ca^2+]i in ciliated tracheal cells. […]

“Also recorded” adds a separate entry of the source.

These results are taken from patent publication US20050287163A1, “Mycoplasma polypeptides” (priority 2002, published 2005).

B1: soybean trypsin inhibitor: soybean trypsin inhibitor (protein, UniProt P01070 25-205, looked up)
Trypsin inhibitor A: DFVLDNEGNPLENGGTYYILSDITAFGGIRAAPTGNERCPLTVVQSRNELDKGIGTIISSPYRIRFIAEGHPLSLKFDSFAVIMLCVGIPTEWSVVEDLPEGPAVKIGENKDAMDGWFRLERVSDDEFNNYKLVFCPQQAEDDKCGDIGISIDHDDGTRRLVVSKNKPLVVQFQKLDKESL
Regarding B1, the entries for the “effect on tryptic Mhyo polypeptide fragment-induced [Ca2+]i increase” value in experiment [1] and in experiment [1] (listed as TI) were “failed to block” and “failed to inhibit”, respectively. Further, the “effect on trypsin-induced [Ca2+]i increase” value in experiment [2] was “inhibited”.

B2: papain: proteolytic enzyme used to pretreat the membrane (protein, UniProt P00784 134-345, looked up)
Papain: IPEYVDWRQKGAVTPVKNQGSCGSCWAFSAVVTIEGIIKIRTGNLNEYSEQELLDCDRRSYGCNGGYPWSALQLVAQYGIHYRNTYPYEGVQRYCRSREKGPYAAKTDGVRQVQPYNEGALLYSIANQPVSVVLEAAGKDFQLYRGGIFVGPCGNKVDHAVAAVGYGPNYILIKNSWGTGWGENGYIRIKRGTGNSYGVCGLYTSSFYPVKN
For the molecule B2, the “effect of protease pretreatment on membrane-induced [Ca2+]i increase” value in experiment [3] is “abolished”.

B3: proteinase K: proteolytic enzyme used to pretreat the membrane (protein, UniProt P06873 106-384, looked up)
Proteinase K: AAQTNAPWGLARISSTSPGTSTYYYDESAGQGSCVYVIDTGIEASHPEFEGRAQMVKTYYYSSRDGNGHGTHCAGTVGSRTYGVAKKTQLFGVKVLDDNGSGQYSTIIAGMDFVASDKNNRNCPKGVVASLSLGGGYSSSVNSAAARLQSSGVMVAVAAGNNNADARNYSPASEPSVCTVGASDRYDRRSSFSNYGSVLDIFGPGTSILSTWIGGSTRSISGTSMATPHVAGLAAYLMTLGKTTAASACRYIADTANKGDLSNIPFGTVNLLAYNNYQA
In the case of B3, the “effect of protease pretreatment on membrane-induced [Ca2+]i increase” value in experiment [3] is listed as “blocked; also recorded: abolished”.
